Results taken from patent US20230063965A1 (YEDA RESEARCH AND DEVELOPMENT, published 2023).

T1: hFcγRIIB (human, UniProt P31994 43-217, limits assumed)
T1 construct: also called CD32B; huFcγRIIB
T1 sequence (looked up): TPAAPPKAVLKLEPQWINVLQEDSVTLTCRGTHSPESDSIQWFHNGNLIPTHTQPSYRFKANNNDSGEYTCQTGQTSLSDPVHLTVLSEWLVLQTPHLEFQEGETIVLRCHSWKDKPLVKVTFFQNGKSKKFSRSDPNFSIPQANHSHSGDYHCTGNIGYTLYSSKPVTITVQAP

T2: hFcγRIIA R131 (human, UniProt P12318 34-218, limits assumed)
T2 construct: R131 allotype as printed (131 is mature-protein numbering)
T2 sequence (looked up): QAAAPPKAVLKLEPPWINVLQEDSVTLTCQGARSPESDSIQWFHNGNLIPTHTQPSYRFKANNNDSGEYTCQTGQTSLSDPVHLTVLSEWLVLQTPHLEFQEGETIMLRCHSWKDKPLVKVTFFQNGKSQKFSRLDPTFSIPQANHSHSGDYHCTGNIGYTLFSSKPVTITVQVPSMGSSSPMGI

B1: Avelumab Afucosylated Fc variant (antibody, human IgG1, lambda)
heavy: not shown
light: QSALTQPASVSGSPGQSITISCTGTSSDVGGYNYVSWYQQHPGKAPKLMIYDVSNRPSGVSNRFSGSKSGNTASLTISGLQAEDEADYYCSSYTSSSTRVFGTGTKVTVLGQPKANPTVTLFPPSSEELQANKATLVCLISDFYPGAVTVAWKADGSPVKAGVETTKPSKQSNNKYAASSYLSLTPEQWKSHRSYSCQVTHEGSTVEKTVAPTECS
modifications: afucosylated Fc glycan (N297, EU); fucose content of about 28%
notes: also called non-fucosylated Fc glycan
B2: Avelumab IgG1 (wild type human IgG1) (antibody)
heavy: not shown
light: B1 light
notes: Made recombinantly in Expi293 cells
B3: Avelumab ALIE (A330L/I332E) (antibody, human IgG1, lambda)
heavy: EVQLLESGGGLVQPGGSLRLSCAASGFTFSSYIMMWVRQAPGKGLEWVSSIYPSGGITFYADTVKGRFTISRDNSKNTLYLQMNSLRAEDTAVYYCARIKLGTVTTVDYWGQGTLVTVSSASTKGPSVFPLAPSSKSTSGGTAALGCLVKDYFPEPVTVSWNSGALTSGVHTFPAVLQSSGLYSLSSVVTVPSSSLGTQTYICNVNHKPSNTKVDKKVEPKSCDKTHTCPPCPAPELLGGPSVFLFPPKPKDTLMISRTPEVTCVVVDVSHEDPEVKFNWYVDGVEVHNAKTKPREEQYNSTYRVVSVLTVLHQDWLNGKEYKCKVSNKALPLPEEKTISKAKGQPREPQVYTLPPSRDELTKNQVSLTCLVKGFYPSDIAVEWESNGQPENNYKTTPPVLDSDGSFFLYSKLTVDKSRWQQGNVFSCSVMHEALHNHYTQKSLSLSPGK
light: B1 light
B4: Avelumab G236A (antibody, human IgG1, lambda)
heavy: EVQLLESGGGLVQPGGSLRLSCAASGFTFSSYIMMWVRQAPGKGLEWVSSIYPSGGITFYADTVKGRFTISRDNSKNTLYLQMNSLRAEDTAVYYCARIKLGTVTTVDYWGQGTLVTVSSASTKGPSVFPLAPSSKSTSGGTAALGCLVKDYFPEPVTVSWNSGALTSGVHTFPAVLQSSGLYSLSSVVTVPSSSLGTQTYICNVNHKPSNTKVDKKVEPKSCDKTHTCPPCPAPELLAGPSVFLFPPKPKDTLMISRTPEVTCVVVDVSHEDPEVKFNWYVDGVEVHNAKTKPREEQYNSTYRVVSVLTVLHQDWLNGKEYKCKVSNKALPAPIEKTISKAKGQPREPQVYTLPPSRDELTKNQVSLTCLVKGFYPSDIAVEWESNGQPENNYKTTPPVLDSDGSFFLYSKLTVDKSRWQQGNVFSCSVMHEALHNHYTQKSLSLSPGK
light: B1 light
B5: Avelumab GASDALIE (G236A/S239D/A330L/I332E) (antibody, human IgG1, lambda)
heavy: EVQLLESGGGLVQPGGSLRLSCAASGFTFSSYIMMWVRQAPGKGLEWVSSIYPSGGITFYADTVKGRFTISRDNSKNTLYLQMNSLRAEDTAVYYCARIKLGTVTTVDYWGQGTLVTVSSASTKGPSVFPLAPSSKSTSGGTAALGCLVKDYFPEPVTVSWNSGALTSGVHTFPAVLQSSGLYSLSSVVTVPSSSLGTQTYICNVNHKPSNTKVDKKVEPKSCDKTHTCPPCPAPELLAGPDVFLFPPKPKDTLMISRTPEVTCVVVDVSHEDPEVKFNWYVDGVEVHNAKTKPREEQYNSTYRVVSVLTVLHQDWLNGKEYKCKVSNKALPLPEEKTISKAKGQPREPQVYTLPPSRDELTKNQVSLTCLVKGFYPSDIAVEWESNGQPENNYKTTPPVLDSDGSFFLYSKLTVDKSRWQQGNVFSCSVMHEALHNHYTQKSLSLSPGK
light: B1 light
notes: also called GASDLIE
B6: Avelumab N297A (FcγR-binding null IgG1) (antibody, name in EU numbering)
heavy: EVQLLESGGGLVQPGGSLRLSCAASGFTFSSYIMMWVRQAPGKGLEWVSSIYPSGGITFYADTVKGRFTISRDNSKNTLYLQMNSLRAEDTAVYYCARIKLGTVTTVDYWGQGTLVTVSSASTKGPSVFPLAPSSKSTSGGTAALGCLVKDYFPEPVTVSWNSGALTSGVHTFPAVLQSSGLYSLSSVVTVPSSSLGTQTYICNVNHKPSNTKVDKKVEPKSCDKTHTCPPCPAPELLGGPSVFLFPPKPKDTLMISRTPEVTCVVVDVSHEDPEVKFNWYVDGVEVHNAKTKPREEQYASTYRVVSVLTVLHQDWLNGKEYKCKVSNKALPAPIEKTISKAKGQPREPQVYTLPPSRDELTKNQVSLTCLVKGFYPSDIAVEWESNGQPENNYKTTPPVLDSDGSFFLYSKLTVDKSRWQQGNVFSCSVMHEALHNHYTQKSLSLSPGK
light: B1 light
notes: also called Fc-silent (N297A) variant

Columns and labels:
hFcγRIIB [1] = biological target: T1, hFcγRIIB; experiment: SPR, immobilized FcγRs, soluble IgGs
[2] = biological target: T3, hFcγRII^F158 (so in the source); read as hFcγRIIIA F158) (human, UniProt P08637 17-208); experiment: SPR, immobilized FcγRs, soluble IgGs
T3 construct: The head is printed 'hFcγRII^F158'; also called huFcγRIIIA

hFcγRIIA R131 = biological target: T2, hFcγRIIA R131; experiment: SPR, immobilized FcγRs, soluble IgGs
[3] = biological target: T4, human FcγRIIIA soluble ectodomain (ELISA) (human, UniProt P08637 17-208); experiment: FcγR binding ELISA, plate-bound human FcγRIIIA soluble ectodomain, serially diluted IgG, Δabsorbance 450 nm; panel FcgR3A
T4 construct: extracellular domain
Description: (§1) ELISA plates (Nunc) were coated overnight at 4° C. with recombinant PD-L1 (1 μg/mL/well). All sequential steps were performed at room temperature in 2% BSA. After being washed, the plates were blocked for 1 hr with 1×PBS with 2% Bovine serum Albumin and were subsequently incubated for 1 hr with serially diluted IgGs. After washing, plates were incubated for 1 hr with HRP-conjugated anti-mouse IgG (Jackson ImmunoResearch). Detection was performed by TMB Soluble Reagent (ScyTek Laboratories) and reactions stopped with the addition of 0.18 M sulfuric acid. Absorbance at 450 nm was immediately recorded using a SpectraMax Plus spectrophotometer (Molecular Devices) and background absorbance from negative control samples was subtracted. […] After washing, plates were incubated for 1 hr with streptavidin-HRP (Jackson ImmunoResearch). (2) For FcγR binding ELISA, human FcγRs soluble ectodomains (2 μg/ml/well) were immobilized to the plate. After being washed, the plates were blocked for 40 minutes with 1×PBS with 10% Bovine serum Albumin and were subsequently incubated for 2 hours with serially diluted IgGs.

FcgR1 = biological target: T5, FcgR1 (human, UniProt P12314); experiment: FcγR binding ELISA, plate-bound human FcγRI soluble ectodomain, serially diluted IgG, Δabsorbance 450 nm; panel FcgR1
T5 construct: soluble ectodomain; also called human FcγRI soluble ectodomain (ELISA); FcγRI
Description: as §1

hFcγRIIB [4] = biological target: T1, hFcγRIIB; experiment: FcγR binding ELISA, plate-bound human FcγRIIB soluble ectodomain, serially diluted IgG, Δabsorbance 450 nm; panel Fcg2B
Description: as §1

[5] = biological target: T6, human FcγRIIIB soluble ectodomain (ELISA) (human, UniProt O75015 17-200, limits assumed); experiment: FcγR binding ELISA, plate-bound human FcγRIIIB soluble ectodomain, serially diluted IgG, Δabsorbance 450 nm; panel Fcg3B
T6 construct: extracellular domain
Description: as §1

T5 sequence (P12314 16-292 limits assumed): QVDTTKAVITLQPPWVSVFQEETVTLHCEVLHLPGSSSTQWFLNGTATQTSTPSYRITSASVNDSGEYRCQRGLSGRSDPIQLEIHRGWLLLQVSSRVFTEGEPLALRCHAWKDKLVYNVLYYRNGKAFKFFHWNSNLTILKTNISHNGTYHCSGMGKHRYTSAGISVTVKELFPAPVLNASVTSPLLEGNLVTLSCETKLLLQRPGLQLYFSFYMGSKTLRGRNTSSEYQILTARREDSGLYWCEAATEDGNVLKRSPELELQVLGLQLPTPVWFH
T3 sequence (P08637 17-208 limits assumed): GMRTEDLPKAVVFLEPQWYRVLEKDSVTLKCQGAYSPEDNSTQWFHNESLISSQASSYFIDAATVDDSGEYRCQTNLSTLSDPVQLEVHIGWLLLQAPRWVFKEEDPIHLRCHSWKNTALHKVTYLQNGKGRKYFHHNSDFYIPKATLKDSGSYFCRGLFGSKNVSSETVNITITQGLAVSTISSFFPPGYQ
T4 sequence (P08637 17-208): as the sequence (P08637 17-208 limits assumed) above
T6 sequence (O75015 17-200 limits assumed): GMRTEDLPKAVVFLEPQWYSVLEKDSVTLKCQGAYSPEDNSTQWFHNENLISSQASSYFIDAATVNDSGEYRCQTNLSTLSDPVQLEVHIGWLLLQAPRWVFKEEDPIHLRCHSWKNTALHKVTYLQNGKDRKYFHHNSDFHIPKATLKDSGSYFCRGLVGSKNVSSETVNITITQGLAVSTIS

Row | Binder | Fold (KD(IgG1)/KD(Fc variant)) (hFcγRIIB [1]) [fold] | Kd (hFcγRIIB [1]) [nM] | Fold (KD(IgG1)/KD(Fc variant)) [2] [fold] | Kd [2] [nM] | Fold (KD(IgG1)/KD(Fc variant)) (hFcγRIIA R131) [fold] | Kd (hFcγRIIA R131) [nM] | EC50 (read off the curve) [3] [µg/mL] | binding result (FcgR1) | binding result [2] | binding result (hFcγRIIA R131) | binding result [3] | binding result (hFcγRIIB [4]) | binding result [5]
1 | B1 | 1.1 | 2800 | 11.6 | 578 | 1 | 1160 | ~2 | binds | – | – | – | – | –
2 | B2 | 1 | 3010 | 1 | 6700 | 1 | 1160 | – | binds | – | – | – | – | –
3 | B3 | 1.1 | 2800 | 5.4 | – | 1.2 | 950 | – | – | – | – | – | – | –
4 | B4 | 0.7 | 4380 | 1.7 | 3900 | 9.3 | 120 | – | – | – | – | – | – | –
5 | B5 | 14 | 230 | 29.5 | 227 | 24.5 | 47 | – | – | – | – | – | – | –
6 | B6 | – | – | – | – | – | – | – | binds | no binding | no binding | no binding (tested: log 1.2 (about 16 µg/ml)) | no binding (tested: log 2 (100 µg/ml)) | no binding (tested: log 2 (100 µg/ml))
